Target: ^125I-labeled human VEGF (human, UniProt P15692-4 27-191, limits assumed, 125I-labeled)
Test: competition against ^125I-VEGF (4 ng/ml) binding to coated KDR-7N-Fc
Protocol: Methanol was dispensed in 100 μl portions into wells of a 96-well Immobilon™-P Filtration Plate (manufactured by Millipore) to give hydrophilic nature to the PVDF membrane on the bottom of the plate. […] After washing, PBS containing 1% bovine serum albumin (BSA) was added in 200 μl/well portions and the reaction was carried out at room temperature for 30 minutes to block the remaining active residues.

Chain of ^125I-labeled human VEGF (P15692 other isoform, or with tags, fused parts or gaps limits assumed): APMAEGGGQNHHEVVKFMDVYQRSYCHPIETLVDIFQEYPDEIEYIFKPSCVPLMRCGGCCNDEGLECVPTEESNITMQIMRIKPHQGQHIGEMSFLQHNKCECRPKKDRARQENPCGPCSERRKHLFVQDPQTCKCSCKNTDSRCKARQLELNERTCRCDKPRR

B1: soluble human VEGF receptor KDR-1N-Fc (Fc fusion)
chain: ASVGLPSVSLDLPRLSIQKDILTIKANTTLQITCRGQRDLDWLWPNNQSGSEQRVEVTECSDGLFCKTLTIPKVIGNDTGAYKCFYRETDLASVIYVYVQDYRS
notes: not shown: linker #1 (6 residues)
- binding result: no binding
